B1: yeast-displayed wild-type sBCMA (human BCMA extracellular domain, Met1-Ala54) [human] / human APRIL (a proliferation-inducing ligand) [human] (parent)
chain 1: MLQMAGQCSQNEYFDSLLHACIPCQLRCSSNTPPLTCQRYCNASVTNSVKGTNA
chain 2: AVLTQKQKKQHSVLHLVPINATSKDDSDVTEVMWQPALRRGRGLQAQGYGVRIQDAGVYLLYSQVLFQDVTFTMGQVVSREGQGRQETLFRCIRSMPSHPDRAYNSCYSAGVFHLHQGDILSVIIPRARAKLNLSPHGTFLGFVKL

Variants of: B1
Test: flow cytometry binding curve of yeast-displayed sBCMA
Conditions: with human APRIL (a proliferation-inducing ligand) [human]

Question: How did the Kd turn out when chain 1 S16G H19Y T36A N53D was run?
Answer: The Kd was 0.008 nM.

Question: How did the Kd turn out when chain 1 S16G H19Y T36A was run?
Answer: The Kd was 0.018 nM.

Question: And the screen value?
Answer: The screen value was 5860 A.U.

Variants of: B1
Test: flow cytometry binding of yeast-displayed sBCMA
Conditions: with human APRIL (a proliferation-inducing ligand) [human]; parent: 262

Question: With chain 1 S16G H19Y T36A as the variant, how does the screen value read?
Answer: Its screen value is 325.

Question: With chain 1 S16G T36A as the variant, how does the screen value read?
Answer: Its screen value is 102.

Question: Which screen value does the source give for chain 1 S9P N11D S16G H19Y T36A N47S N53D here?
Answer: The screen value was 1310.

— article PMC9428257
